Measured values: patent US20220333113
pKd: −log10 of the molar value.

Tests used:
Experiment in all cases: filter
Conditions in all cases: J = PPdU at every J; SB18T0.01 + 1 mM DTT, 37 C
[1] = target: T1, RIG-I K861A (Homo sapiens) (UniProt O95786)
T1 sequence: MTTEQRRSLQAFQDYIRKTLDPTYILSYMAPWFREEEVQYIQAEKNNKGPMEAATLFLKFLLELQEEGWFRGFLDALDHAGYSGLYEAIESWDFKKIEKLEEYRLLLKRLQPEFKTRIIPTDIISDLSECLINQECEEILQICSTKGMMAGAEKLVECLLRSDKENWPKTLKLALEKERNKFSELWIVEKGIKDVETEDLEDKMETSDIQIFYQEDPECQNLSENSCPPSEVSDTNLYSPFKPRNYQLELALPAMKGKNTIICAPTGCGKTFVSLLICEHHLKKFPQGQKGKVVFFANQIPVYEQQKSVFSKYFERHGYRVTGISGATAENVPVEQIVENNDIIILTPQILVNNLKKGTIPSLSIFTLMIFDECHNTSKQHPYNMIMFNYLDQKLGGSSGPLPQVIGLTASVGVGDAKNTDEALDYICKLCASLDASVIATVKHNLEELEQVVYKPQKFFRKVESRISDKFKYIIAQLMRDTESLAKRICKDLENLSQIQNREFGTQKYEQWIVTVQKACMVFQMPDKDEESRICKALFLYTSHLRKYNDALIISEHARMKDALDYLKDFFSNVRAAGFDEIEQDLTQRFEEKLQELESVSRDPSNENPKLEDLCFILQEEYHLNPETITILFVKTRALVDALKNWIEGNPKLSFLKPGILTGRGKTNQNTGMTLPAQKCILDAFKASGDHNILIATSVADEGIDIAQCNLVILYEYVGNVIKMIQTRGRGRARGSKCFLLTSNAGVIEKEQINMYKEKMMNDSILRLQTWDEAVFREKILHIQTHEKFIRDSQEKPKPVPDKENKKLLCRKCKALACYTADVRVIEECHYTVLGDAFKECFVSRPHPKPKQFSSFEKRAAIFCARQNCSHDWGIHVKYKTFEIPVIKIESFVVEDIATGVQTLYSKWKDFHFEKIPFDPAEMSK

[2] = target: T2, RIG-I helicase domain (aa 229-793) (Homo sapiens) (UniProt O95786)
T2 sequence: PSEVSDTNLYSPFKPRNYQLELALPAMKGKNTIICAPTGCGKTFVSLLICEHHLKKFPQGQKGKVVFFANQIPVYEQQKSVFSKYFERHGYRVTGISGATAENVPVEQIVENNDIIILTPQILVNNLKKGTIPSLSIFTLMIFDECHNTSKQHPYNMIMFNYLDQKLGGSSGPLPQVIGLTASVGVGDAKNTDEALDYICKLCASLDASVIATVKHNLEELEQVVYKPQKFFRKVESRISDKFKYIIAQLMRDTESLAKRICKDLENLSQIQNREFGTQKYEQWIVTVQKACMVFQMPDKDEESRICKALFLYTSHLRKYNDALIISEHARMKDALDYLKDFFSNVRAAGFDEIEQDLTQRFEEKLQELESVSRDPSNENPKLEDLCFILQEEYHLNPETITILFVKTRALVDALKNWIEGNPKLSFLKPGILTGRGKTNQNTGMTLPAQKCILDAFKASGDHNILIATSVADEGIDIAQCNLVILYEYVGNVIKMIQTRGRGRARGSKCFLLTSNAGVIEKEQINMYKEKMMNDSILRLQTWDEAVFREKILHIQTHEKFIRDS

[3] = target: T3, RIG-I ΔCARDs (aa 229-925) (Homo sapiens) (UniProt O95786)
T3 sequence: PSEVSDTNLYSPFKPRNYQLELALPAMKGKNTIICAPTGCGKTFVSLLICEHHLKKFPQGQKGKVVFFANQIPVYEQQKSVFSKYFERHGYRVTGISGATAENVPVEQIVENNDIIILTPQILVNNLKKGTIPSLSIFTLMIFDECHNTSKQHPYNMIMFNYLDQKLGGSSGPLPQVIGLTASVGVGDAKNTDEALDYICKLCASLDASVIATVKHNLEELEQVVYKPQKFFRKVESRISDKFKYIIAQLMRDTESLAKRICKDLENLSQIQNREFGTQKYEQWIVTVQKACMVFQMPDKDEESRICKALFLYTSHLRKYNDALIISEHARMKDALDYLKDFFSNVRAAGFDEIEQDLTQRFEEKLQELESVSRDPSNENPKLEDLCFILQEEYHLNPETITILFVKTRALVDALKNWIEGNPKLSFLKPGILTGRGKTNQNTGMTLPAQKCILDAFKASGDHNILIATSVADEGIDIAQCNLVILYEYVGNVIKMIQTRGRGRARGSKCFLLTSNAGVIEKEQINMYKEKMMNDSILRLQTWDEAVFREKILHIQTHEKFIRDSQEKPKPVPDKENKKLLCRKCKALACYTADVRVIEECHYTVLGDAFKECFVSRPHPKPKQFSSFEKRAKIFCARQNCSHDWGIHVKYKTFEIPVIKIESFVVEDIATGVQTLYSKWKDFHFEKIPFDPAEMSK

Q: “ATCTCTGTGTCATGTGTTTTAATGTCAGTTTAATGATGAGG [14832-55_8]” was tested. Which pKd [1] did it give?
A: 9.05

Q: And the pKd [2]?
A: 8.00

Q: And the pKd [3]?
A: 10.89
